Reference: patent US20080075726A1 (VACCINEX, published 2008)
Changes are numbered by the printed parent chain. Blank lines part the entries; values can stand above or below the binder they belong to.

Target: T1, recombinant human IL-6 (human, UniProt P05231 30-212, limits assumed)
T1 construct: also called rhIL6; human recombinant IL-6
Test: competition ELISA, rhIL-6 in solution against captured IL-6
Procedure: Briefly, plates were coated with 2 μg/ml of mBE4 capture antibody in coating buffer, 100 μl per well. The plates were incubated overnight. Next, the plates were washed 3 times and tapped dry. The plates were then blocked with 200 μl per well of Assay Diluent or 10% FBS in PBS and incubated for 2 hours. […] The reaction was left at RT for 3-4 hours. […] Next, the plates were washed 3 times and tapped dry. […] The plates were incubated for 1-2 hours. The plates were washed 3 times and tapped dry. […] The plates were incubated at RT for 2 hours. (Therefore, any unbound mAb at this point will be measured by ELISA). Plates were then washed 5 times and tapped dry. 100 μl of detection Ab goat anti-human IgG F(ab)′2-HRP (Jackson lab) was added at 1:20,000 dilutions or 1:40,000 dilutions (depending on lot) and the plates were incubated for 1-2 hours. The plates were washed 7 times and tapped dry. Next, the Developer Substrate (equal parts of each reagent in the kit) was pre-mixed and allowed to warm to room temperature before use. Then 100 μl of Developer was added to each well. The plates were allowed to develop for 15 minutes un-sealed in a drawer in the dark. Finally, developing was stopped by adding 100 μl of 2N H₂SO₄ to each well and plates were read as Endpoint at 450 nm-[…].

- IC50: 9.6 nM
B1: mAb 239 (antibody, V domains shown)
VH: QVTLKESGPTLVKPTQTLTLTCIFSGFSFKTSGVSVGWIRQPPGKALEWLALIYWDDDKRYSPSLKNRLTITRDTSKNQVVLTMTNMDPVDTATYYCARSYDDYLYYALDYWGQGTLVT
VL: DVVMTQSPSSVSASVGDRVTITCRASQDIDNFLAWYQQKPGKAPNLLIYKVSSLRSGVPSRFSGSRSGTDFTLTITSLQPEDFATYFCQQTRRFPLTFGPGTKLE

- IC50: 6.5 nM
B2: mAb 237 (antibody, V domains shown)
VH: B1 VH with I23T, F29L, K30R, I39F, I53V, K59R, S62N
VL: B1 VL

- IC50: 6.5 nM
B3: mAb 241 (antibody, V domains shown)
VH: QVTLKESGPTLVKPTQTLTLTCSFSGFSLSTSGVGVGWVRQPPGKALEWLAFIFWDDDKYYSPSLESRLTITKDTSKNQVVLTMTNMDPVDTATYYCARSYDDYLYYALDYWGQGTLVT
VL: B1 VL

- IC50: 2.5 nM
B4: mAb 285 (antibody, V domains shown)
VH: QVTLKESGPALVKPTQTLTLTCTFSGFSLSTSGMCVSWIRQPPGKALEWLTLIYWDDDKRYSPSLETRLTITKDTSKNQVVLTMTNMDPVDTATYYCARSYDDYLYYALDYWGQGTLVT
VL: B1 VL

- IC50: 2 nM
B5: mAb 186 (antibody, V domains shown)
VH: B4 VH with S30T, T51A, S62N, E66R, T67S
VL: DVVMTQSPSSLSASVGGRVTITCRASQTIGDYLNWYQQKPGKAPRLLIYSASIVQSGVPSRFSASGSGTDFTLTISSLQPEDFATYSCQQSYSFPLTFGGGTKLEIK

- IC50: 2.3 nM
B6: mAb 192 (antibody, V domains shown)
VH: B4 VH with S30T, T51A, S62N, E66R, T67S
VL: DIVMTQSPSSLSASVGDRVTITCRASRNINTYLNWYQQKPGKAPKLLVHSASTLQSGAPSRFSGSGYGTEFTLIISSLQPDDFATYYCQQGYNTLTFGPGTKLE

- IC50: 2.4 nM
B7: mAb 187 (antibody, V domains shown)
VH: B4 VH with S30T, T51A, S62N, E66R, T67S
VL: EIVLTQSPSSLSASAGDTVTIACRASQGIRTALAWYQQKPGRNPKLLISEAYRLQSGVSPKFSGSGFGTDFTLTINSLQPEDFATYYCQQFNDFPLTFGGGTKLEIK

- IC50: 1.4 nM
B8: mAb 188 (antibody, V domains shown)
VH: B4 VH with S30T, T51A, S62N, E66R, T67S
VL: DIQMTQSPSTLSASVGDRVTITCRASQSISRWLAWYQQKPGKAPKLLISKASSLEYGVPSRFSGSGSGTEFALTISNVQPEDFATYYCQQSFAVPLTFGGGTKLEIK

- IC50: 2.5 nM
B9: mAb 286 (antibody, V domains shown)
VH: B4 VH
VL: DIVMTQSPSSLSASVGDRVTITCRASQTISSYLNWYQQKPGKPPKLLIYAASSLESGVPSRFSGSGSGTEFTLTISSLQPEDLATYYCQQANSFPLTFGGGTKLE

- IC50: 0.72 nM
B10: mAb 189 (antibody, V domains shown)
VH: B4 VH with S30T, T51A, S62N, E66R, T67S
VL: DIQMTQSPSSLSAFVGDGVTMTCWASQSINDYLNWYHQRPGEAPELLVFAASNLQIGVPSRFRGSGSETYFTLTINSLQPEDSGTYFCQQTSSFPLTFGGGTKLE

- IC50: 1.9 nM
B11: mAb 190 (antibody, V domains shown)
VH: B4 VH with S30T, T51A, S62N, E66R, T67S
VL: DIQMTQSPSSLSASVGDSVTITCRASQTISDFLNWYQQKPGKAPKLLIHASSNLQSGVPSRFSGSGSGTDFTLTISDLQPEDFATYSCQQTYSTLGTFGQGTRLE

- IC50: 2.7 nM
B12: mAb 193 (antibody, V domains shown)
VH: B4 VH with S30T, T51A, S62N, E66R, T67S
VL: EIVLTQSPSSLSASVGDRVTISCRASQNIIDYLNWYQHKPGKVPTLLISGTSTLQSGVPSRFSGSGFGTDFTLTISSVQPEDVATYYCQQGHGTPLSFGGGTKLEIK

- IC50: 1.5 nM
B13: mAb 185 (antibody, V domains shown)
VH: B4 VH with S30T, T51A, S62N, E66R, T67S
VL: DVVMTQSPSSVSASVGDRVTITCRASQVIDSWLHWYQREPGKAPKILIYAATTLQRGVPSRFSGSGFGTEFTLTISGLQPEDFATYFCQQGYSFPITFGQGTRLEIK

- IC50: 1.1 nM
B14: mAb 123 (antibody, V domains shown)
VH: B4 VH with S30T, T51A, S62N, E66R, T67S, Y101H
VL: DIVMTQSPATLSVTPGDRVSLSCRASQSISDYLHWYQQKSHESPRLLIKSVSQSISGIPSRFSGSGSGSDFTLSINSVEPEDVGVYYCQNGHSFPLTFGAGTKLELK

- IC50: 3.7 nM
B15: mAb 197 (antibody, V domains shown)
VH: B4 VH with S30T, T51A, S62N, E66R, T67S, Y101H
VL: B13 VL

- IC50: 0.12 nM
B16: mAb 770 (antibody, V domains shown)
VH: B3 VH
VL: DIQMTQSPSSLSAFVGDGVTMTCWASQSINDYLNWYHQRPGEAPELLVFAASNLQIGVPSRFRGSGSETYFTLTINSLQPEDSGTYFCQHGHSFPLTFGGGTKLEI

- IC50: 0.11 nM
B17: mAb 1123 (antibody, V domains shown)
VH: B3 VH with S100F
VL: B16 VL with H90N

- IC50: 0.7 nM
B18: mAb 275 (antibody, V domains shown)
VH: B4 VH with S30T, T51A, S62N, E66R, T67S
VL: B16 VL with H90N

- IC50: 0.07 nM
B19: mAb 765 (antibody, V domains shown)
VH: B3 VH
VL: B16 VL with H90N, G91A

- IC50: 1.5 nM
B20: mAb 191 (antibody, V domains shown)
VH: B4 VH with S30T, T51A, S62N, E66R, T67S
VL: B5 VL with K39R, A64G, D70H

- IC50: 0.09 nM
B21: mAb 963 (antibody, V domains shown)
VH: B3 VH with Y101G
VL: B16 VL with H90N

- IC50: 0.065 nM
B22: mAb 992 (antibody, V domains shown)
VH: B3 VH with Y111T
VL: B16 VL with H90N

- IC50: 0.032 nM
B23: mAb 1155 (antibody, V domains shown)
VH: B3 VH with Y101A, A108S, L109F, Y111T
VL: B16 VL

- IC50: 0.053 nM
B24: mAb 968 (antibody, V domains shown)
VH: B3 VH with L109F
VL: B16 VL with H90N

- IC50: 0.22 nM
B25: mAb 810 (antibody, V domains shown)
VH: B3 VH with A108S
VL: B16 VL with H90N

- IC50: 0.023 nM
B26: mAb 1156 (antibody, V domains shown)
VH: B3 VH with Y101A, A108S, L109F, Y111T
VL: B16 VL with H90S

- IC50: 0.85 to 4.2 nM
B27: mAb 179 (antibody, V domains shown)
VH: B4 VH with S30T, T51A, S62N, E66R, T67S
VL: B14 VL

- IC50: 0.09 nM
B28: mAb 1127 (antibody, V domains shown)
VH: B3 VH with Y106M
VL: B16 VL with H90N

- IC50: 7.4 nM
B29: mAb 205 (antibody, V domains shown)
VH: B4 VH with S30T, T51A, S62N, E66R, T67S, Y101H
VL: B12 VL

- IC50: 0.027 nM
B30: mAb 1154 (antibody, V domains shown)
VH: B3 VH with Y101A, A108S, L109F, Y111T
VL: B16 VL with H90N

- IC50: 0.16 nM
B31: mAb 774 (antibody, V domains shown)
VH: B3 VH
VL: B16 VL with H90S

- IC50: 0.029 nM
B32: mAb 1192 (antibody, V domains shown)
VH: B3 VH with F54W
VL: B16 VL with H90N

- IC50: 2.4 nM
B33: mAb 202 (antibody, V domains shown)
VH: B4 VH with S30T, T51A, S62N, E66R, T67S, Y101H
VL: B11 VL

- IC50: 2 nM
B34: mAb 201 (antibody, V domains shown)
VH: B4 VH with S30T, T51A, S62N, E66R, T67S, Y101H
VL: B10 VL

- IC50: 0.08 nM
B35: mAb 808 (antibody, V domains shown)
VH: B3 VH
VL: B16 VL with H90N, H92W
